Results taken from patent publication US20050196844.

System: E. coli synthesized tau (352 residue isoform), non-phosphorylated

Substance	in vitro kinase reaction, immunoblot with anti-PY18 and 4G10
fyn tyrosine kinase (Upstate Biotechnologies)	fyn kinased tyr18 in vitro
src tyrosine kinase (Upstate Biotechnologies)	Identical results were observed for src.
